From US20230105415A1 (ARIZONA BOARD OF REGENTSON BEHALF OF ARIZONA STATE …, published 2023)

Target: T1, human complement C1q (human, UniProt P02745 23-245; P02746 28-253; P02747 29-245)
T1 construct: also called human C1q
Experiment: C1q binding ELISA, GnGn against wt plants (FIG. 9)

T1 sequence (P02745 23-245 limits assumed, chain 1 of 3): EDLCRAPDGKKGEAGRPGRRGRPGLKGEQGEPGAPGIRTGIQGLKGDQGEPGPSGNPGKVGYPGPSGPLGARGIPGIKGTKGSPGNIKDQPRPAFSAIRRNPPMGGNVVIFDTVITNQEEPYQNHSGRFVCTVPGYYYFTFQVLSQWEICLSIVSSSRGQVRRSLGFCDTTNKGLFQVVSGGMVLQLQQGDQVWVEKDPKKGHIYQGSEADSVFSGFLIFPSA
T1 sequence (P02746 28-253 limits assumed, chain 2 of 3): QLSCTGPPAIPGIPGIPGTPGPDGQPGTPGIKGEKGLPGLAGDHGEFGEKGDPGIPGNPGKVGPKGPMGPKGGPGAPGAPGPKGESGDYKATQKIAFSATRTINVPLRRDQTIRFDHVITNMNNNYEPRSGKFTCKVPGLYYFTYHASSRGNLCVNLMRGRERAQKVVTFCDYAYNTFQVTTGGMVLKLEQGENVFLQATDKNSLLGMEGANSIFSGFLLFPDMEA
T1 sequence (P02747 29-245 limits assumed, chain 3 of 3): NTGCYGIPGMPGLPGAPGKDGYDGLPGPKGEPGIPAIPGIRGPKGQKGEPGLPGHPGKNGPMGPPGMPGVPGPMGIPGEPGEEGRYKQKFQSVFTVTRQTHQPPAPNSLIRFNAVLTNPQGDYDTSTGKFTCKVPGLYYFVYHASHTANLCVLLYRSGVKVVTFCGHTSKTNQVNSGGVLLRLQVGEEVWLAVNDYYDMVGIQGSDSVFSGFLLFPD

B1: 6D8 antibody (full 6D8 mAb without ZE3 fusion, construct HL) (antibody)
heavy: not shown
light: DVLMTQSPLSLPVTLGQPASISCRSSQSIVHSNGNTYLEWYLQKPGQSPKLLIYKASNRFSGVPDRFSGSGSGTDFTLKISRVEAEDAGVYYCLQGSHVPSTFGGGTKVEIKTVAAPSVFIFPPSDEQLKSGTASVVCLLNNFYPREAKVQWKVDNALQSGNSQESVTEQDSKDSTYSLSSTLTLSKADYEKHKVYACEVTHQGLSSPVTKSFNRGEC
- binding result: binds
